This note sets out measurements from the supplement of paper PMC9170038.

The subject of this series is MS2 coat protein. As to the kind of experiment: apparent KD of MS2 coat protein; designed switch direction (-1 OFF switch, 1 ON switch): 1; higher = weaker reporter binding. Summed up: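 Each step of the titration lasted 0.8–1.5 h at the lowest concentration and 10–20 min at the highest. The protein, SNAP-549-labelled MS2 coat protein, went from 0.7 or 1.5 nM doubling to 3 µM over RNA switches transcribed on Illumina chips by stalled E. coli RNA polymerase. Normalised cluster fluorescence was curve-fitted, and the per-design median over clusters is given as apparent KD.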

Where [1] appears, read: input ligand: microRNA oligo, concentration not stated.
Setting [2] is: Eterna round: R95, input ligand: FMN 200 uM.
Where [3] appears, read: Eterna round: R95, input ligand: microRNA oligo, concentration not stated.
Setting [4] is: Eterna round: R95, input ligand: none.

As for “UAUUUAAUCAUAGGAUAUAGUGUGAAAUUUGGACUAGAAGGAUGUAACAUGAGGAUCACCCAUGUGGUAAGUGGGACACAGUGU [JR_SSNG1_Sub095] (Eterna round: R96, puzzle: Same State NG 1)”, the “apparent KD of MS2 coat protein” value (input ligand: FMN 200 uM) is 0.164 µM, the “apparent KD of MS2 coat protein” value under setting [1] came out at 0.0694 µM and the “apparent KD of MS2 coat protein” value (input ligand: none) amounted to 0.141 µM.

With “GAGUGACGAUUAGGAUAUAUAGUGAUAAUGAUAAUAGAAGGAAUUGACAUGAGGAUCACCCAUGUAGGACUAAUCCAGAGAGAG [Parity 28 - Jieux - Same State NG 1] (Eterna round: R96, puzzle: Same State NG 1)”, the “apparent KD of MS2 coat protein” value under setting [1] was 0.0449 µM.

For “GGAGCCGACACCGAGGAUAUUCAUAUUAAAACAUGAGGAUCACCCAUGUAGGCCAGAAGGCCUUGGGAGAAGGCGGAUCGGCUCG [Xeonanis - 8] (puzzle: Same State 2)”, the “apparent KD of MS2 coat protein” value turned out to be 0.0212 µM under setting [2], 0.24 µM under setting [3] and 0.301 µM under setting [4].

For the sequence “AUAAAACAUGAGGAUCACCCAUGUCAACAAAGUCGAGGAUAUGGGUAAAUAAAAUAAGAACCAGAAGGCGAAUAAU [salish99_ss1_r3_028] (puzzle: Same State 1)”, the “apparent KD of MS2 coat protein” value was 0.0835 µM under setting [2], 0.283 µM under setting [3] and 0.163 µM under setting [4].

As for “CCCUGAGGUAACCUACAGGGACAUGAGGAUCACCCAUGUACACAGGAUAUCGAAGGCUCCGCCCUCGAGAAGGGUGAUCAAACU [Leuslein] (Eterna round: R96, puzzle: Same State NG 3)”, the “apparent KD of MS2 coat protein” value was 1.52 µM (input ligand: FMN 200 uM), 0.266 µM under setting [1] and 0.109 µM (input ligand: none).

On to “UGUUAACAUGAGGAUCACCCAUGUCAAAUGAAGCGAGGAUAUGGAAAGUAAUAAGAUGAACUAGAAGGUGUAGUAG [Altered State 1-20 - Jieux - Same State 1] (puzzle: Same State 1)”, for which the “apparent KD of MS2 coat protein” value runs as follows: under setting [2], 0.0376 µM; under setting [3], 0.0594 µM; under setting [4], 0.062 µM.

In the case of “AUUGCUAGCACAGGAUAUCAUGCGAAAAUUGCGUGAGAAGGGUGGACGCUGUCAUUCACGGAAGACAUGAGGAUCACCCAUGUC [SameState NG1 #77] (Eterna round: R96, puzzle: Same State NG 1)”, the “apparent KD of MS2 coat protein” value stood at 0.0446 µM (input ligand: FMN 200 uM), 0.0562 µM under setting [1] and 0.0881 µM (input ligand: none).

Consider “UACAUACGCGGAGGAUAUGGGCGAGGCGCAGAGGUCUGCACCAAAACAUGAGGAUCACCCAUGUCCCAGAAGGCCGCACAAACU [Onageenza] (Eterna round: R96, puzzle: Same State NG 2)”, for which the “apparent KD of MS2 coat protein” value (input ligand: FMN 200 uM) was found to be 0.0199 µM, the “apparent KD of MS2 coat protein” value under setting [1] is 0.0488 µM and the “apparent KD of MS2 coat protein” value (input ligand: none) was found to be 0.0719 µM.

Turning to “AUUAACAUGAGGAUCACCCAUGUUACGAGCUUAGCUCGGACACAGGAUAUCCGGUCCUAGAGACCGGAGAAGGGUGCCUUAUAA [Zara MOD4] (Eterna round: R96, puzzle: Same State NG 3)”, the “apparent KD of MS2 coat protein” value runs as follows: (input ligand: FMN 200 uM) 0.742 µM; under setting [1], 0.123 µM; (input ligand: none) 0.265 µM.

As for “AAGAAACAUGAGGAUCACCCAUGUGUAAAUAUGGGAGGAUAUACAAGGACGUAAGUCAAGGUAGAAGGCCUAAGAA [Mat - Same State 1 - Meechl mod - D137] (Eterna round: R96, puzzle: Same State 1)”, the “apparent KD of MS2 coat protein” value is, setting by setting: (input ligand: FMN 200 uM) 0.031 µM; under setting [1], 0.155 µM; (input ligand: none) 0.234 µM.

For the sequence “GCGAGCGUACUUGCUACAUGAGGAUCACCCAUGUUUCAUGGACAGGAUAUGGUACCGUUUCGGUACCAGAAGGGUUCACAUGUA [JL SSNG3 3.80] (Eterna round: R96, puzzle: Same State NG 3)”, the “apparent KD of MS2 coat protein” value reads like this: (input ligand: FMN 200 uM) 0.155 µM; under setting [1], 0.0988 µM; (input ligand: none) 0.315 µM.

For “AACAAUCUAUCUGAGGAUAUUAUGAAAUAAACAUGAGGAUCACCCAUGUGCAGGAAAACUGCAUAUGAGAAGGCAGAUAGAUUGA [salish99_ss2_r3_027] (Eterna round: R96, puzzle: Same State 2)”, the “apparent KD of MS2 coat protein” value under setting [1] turned out to be 0.274 µM.

On to “AAUUAUUAACAUGAGGAUCACCCAUGUGUUUUUGGGCUCGUUUUAUUUAUUAUUAUUAUUAUUAUUAUUAUUAUUAA [SB switch1] (puzzle: Sensor for hsa-mir-208a version 2)”, for which the “apparent KD of MS2 coat protein” value under setting [2] is 0.0853 µM, the “apparent KD of MS2 coat protein” value under setting [3] was found to be 0.0691 µM and the “apparent KD of MS2 coat protein” value under setting [4] came to 0.154 µM.

Take “UUGCUCGGGUGAGGAUAUGCCGCCGUUUCGGCUGCAGAAGGUGCUACGUUACAUGAGGAUCACCCAUGUCUCUGUUGUUUCGUC [salish99_SSNG1_r04_968] (Eterna round: R96, puzzle: Same State NG 1)”: the “apparent KD of MS2 coat protein” value is, setting by setting: (input ligand: FMN 200 uM) 0.0651 µM; under setting [1], 0.0281 µM; (input ligand: none) 0.0523 µM.
